From the supplement of paper PMC9170038

Test system: MS2 coat protein
Experiment: apparent KD of MS2 coat protein; designed switch direction (-1 OFF switch, 1 ON switch): 1; higher = weaker reporter binding
Outline: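 RNA switches sharing common flanks were transcribed by stalled E. coli RNA polymerase on Illumina chips. A doubling series of SNAP-549-labelled MS2 coat protein, from 0.7 or 1.5 nM to 3 µM, was applied in Tris-HCl pH 7.5 buffer with KCl, MgCl2, BSA, DTT, tRNA and Tween-20. Each step lasted 0.8–1.5 h at the bottom of the series and 10–20 min at the top. Normalised cluster fluorescence was curve-fitted, giving apparent KD as the per-design median over clusters.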

[1] = Eterna round: R95, input ligand: FMN 200 uM
[2] = Eterna round: R95, input ligand: microRNA oligo, concentration not stated
[3] = Eterna round: R95, input ligand: none
[4] = input ligand: microRNA oligo, concentration not stated

Sequence	apparent KD of MS2 coat protein [1] [µM]	apparent KD of MS2 coat protein [2] [µM]	apparent KD of MS2 coat protein [3] [µM]	apparent KD of MS2 coat protein (input ligand: FMN 200 uM) [µM]	apparent KD of MS2 coat protein [4] [µM]	apparent KD of MS2 coat protein (input ligand: none) [µM]
UCUUGGUUUUUGCUCGUUUUUUGUGUUGAACAUGAGGAUCACCCAUGUAUUGUACAGUCCGAUUUAAUAAUGGUCCG [JMF 57] (puzzle: Sensor for hsa-mir-208a)	0.0315	0.026	0.0338	–	–	–
UCUUGGUUUUUGCUCGUUUUUUGUGUUGAACAUGAGGAUCACCCAUGUAUUGUACGAUCCGGUUUAGUGAUGGUCCG [JMF 63] (puzzle: Sensor for hsa-mir-208a)	0.0408	0.0277	0.0421	–	–	–
UCUUGGUUUUUGCUCGUUUUUUGUGUUGAACAUGAGGAUCACCCAUGUAUUGUACGGUCCAAUUUAAUAAUAGUCCA [JMF 75] (puzzle: Sensor for hsa-mir-208a)	0.0623	0.0528	0.0755	–	–	–
UCUUGGUUUUUGCUCGUUUUUUGUGUUGAACAUGAGGAUCACCCAUGUAUUGUACGGUCCAAUUUAGUAGUGGUCCG [JMF 25] (puzzle: Sensor for hsa-mir-208a)	0.0266	0.0153	0.0262	–	–	–
UCUUGGUUUUUGCUCGUUUUUUGUGUUGAACAUGAGGAUCACCCAUGUAUUGUACGGUCCGAUUUAGUGAUGGUCCA [JMF 40] (puzzle: Sensor for hsa-mir-208a)	0.0369	0.0184	0.0425	–	–	–
UCUUGGUUUUUGCUCGUUUUUUGUGUUGAACAUGAGGAUCACCCAUGUAUUGUACGGUCCGAUUUAGUGGUAGUCCG [JMF 72] (puzzle: Sensor for hsa-mir-208a)	0.0347	0.0235	0.036	–	–	–
UCUUGGUUUUUGCUCGUUUUUUGUGUUGAACAUGAGGAUCACCCAUGUAUUGUACGGUCCGGUUUGAUGAUGGUCCA [JMF 46] (puzzle: Sensor for hsa-mir-208a)	0.0356	0.0239	0.0383	–	–	–
UGAAUAUUUACAGGAUAUGAGUUGUAUAGUGGGUCAGAAGGGUGGGUGUUUUGCACGGUGUGUUACAUGAGGAUCACCCAUGUU [SameState NG1 #27] (Eterna round: R96, puzzle: Same State NG 1)	–	–	–	0.129	0.0745	0.146
UGACACACGGCAGGAUAUCGAUUGCAAAGCAAUCGAGAAGGGCCUCAUGUCGUGGAAACGUGACAUGAGGAUCACCCAUGUUGC [Omei SS(NG)1 Cv14] (Eterna round: R96, puzzle: Same State NG 1)	–	–	–	0.178	0.0196	0.0329
UGCCUGAGUCGAGGAUAUUAUGGAUCCUUUAAUACAUGAGGAUCACCCAUGUAAUUAAUUAUACAUGAGAAGGUGACUCAGGCA [SSNG2/11-B2] (Eterna round: R96, puzzle: Same State NG 2)	–	–	–	0.039	0.126	0.289
UGCUUCGUGUGAGGAUAUGCUGCCGUUUCGGCUGCAGAAGGUACUAUAAUACAUGAGGAUCACCCAUGUCUGUCGGUUUGCGGG [salish99_SSng1_r04_305-lowA] (Eterna round: R96, puzzle: Same State NG 1)	–	–	–	0.0464	0.0288	0.0493
UGGAUCUAGGCUUGCCUGGGUCCAUGCUGACAUGAGGAUCACCCAUGUGCAUCCUACAAGCUUUUUGCUUGUCGGCU (puzzle: Sensor for hsa-mir-208a)	0.178	0.194	0.221	–	–	–
UGGAUCUAGGCUUGCCUGGGUCCUUCAAGACAUGAGGAUCACCCAUGUGUUUUUUUUUUGCUUUUUGUUUGUCUUGA [JL A Humble Attempt mod 2] (puzzle: Sensor for hsa-mir-208a)	0.0508	0.015	0.0231	–	–	–
